This note sets out measurements from the supplement of paper PMC9112550, “Optimization of the antimicrobial peptide Bac7 by deep mutational scanning” (BMC Biology, 2022).

The data set relates to Escherichia coli TOP10. Description: shrunken log2 fold change of peptide-encoding DNA abundance (4.5 h post-induction vs induction); higher = less antimicrobial activity (less host growth inhibition). The following applies: time post-induction: 4.5 h; library: site-saturation at positions 5, 18, 19, 20.
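Note: peptides expressed intracellularly from a pBAD plasmid library in pooled LB shake-flask culture, induced with 0.3% L-arabinose, DNA abundance read by NGS, three biological replicates, DESeq2 with apeglm shrinkage.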

Regarding RRIRIRPPRLPRPRPRPRMLPRP, the “shrunken log2 fold change” value was -0.177. The result for RRIRKRPPRLPRPRPRPHMQPRP reads -0.0772; that for RRIRARPPRLPRPRPRPHHMPRP, -0.715; that for RRIRGRPPRLPRPRPRPKKHPRP, 0.655. For the sequence RRIRHRPPRLPRPRPRPMGPPRP, the “shrunken log2 fold change” value worked out at 0.0818. The result for RRIRHRPPRLPRPRPRPEHGPRP reads -0.00141.

Turning to RRIRIRPPRLPRPRPRPWATPRP, the “shrunken log2 fold change” value turned out to be 0.16. Regarding RRIRERPPRLPRPRPRPSFAPRP, the “shrunken log2 fold change” value is -0.192. Regarding RRIRGRPPRLPRPRPRPLMYPRP, the “shrunken log2 fold change” value is -0.00226. The result for RRIRSRPPRLPRPRPRPWATPRP reads -0.102; that for RRIRFRPPRLPRPRPRPYPYPRP, -0.1. As for RRIRNRPPRLPRPRPRPVKIPRP, the figure is 0.0539; as for RRIRFRPPRLPRPRPRPYYDPRP, -0.072. The result for RRIRYRPPRLPRPRPRPKMIPRP reads -0.537. RRIRERPPRLPRPRPRPHCGPRP: the “shrunken log2 fold change” value is -0.333. As for RRIRDRPPRLPRPRPRPMNHPRP, the figure is -0.513; as for RRIRERPPRLPRPRPRPDRFPRP, -0.01; as for RRIRKRPPRLPRPRPRPHNIPRP, -0.1. As for RRIRWRPPRLPRPRPRPYWCPRP, the figure is -0.704; as for RRIRLRPPRLPRPRPRPAPGPRP, 0.432. On to RRIRNRPPRLPRPRPRPMPPPRP, for which the “shrunken log2 fold change” value amounted to 0.208. As for RRIRYRPPRLPRPRPRPSPFPRP, the “shrunken log2 fold change” value is 0.0737. As for RRIRIRPPRLPRPRPRPKWYPRP, the figure is -0.22; as for RRIRERPPRLPRPRPRPHYKPRP, -0.901; as for RRIRNRPPRLPRPRPRPFRWPRP, 0.0512. As for RRIRGRPPRLPRPRPRPSRFPRP, the figure is 0.0371. As to RRIRQRPPRLPRPRPRPFNPPRP, the “shrunken log2 fold change” value was -0.077. As for RRIRTRPPRLPRPRPRPQGSPRP, the figure is -0.0161.

Regarding RRIRRRPPRLPRPRPRPEHGPRP, the “shrunken log2 fold change” value was 0.0177. The result for RRIRYRPPRLPRPRPRPTANPRP reads -0.602; that for RRIRYRPPRLPRPRPRPHVCPRP, -0.358; that for RRIRLRPPRLPRPRPRPSDLPRP, -0.163. The result for RRIRVRPPRLPRPRPRPASGPRP reads -0.188; that for RRIRQRPPRLPRPRPRPMYAPRP, 0.151. As for RRIRDRPPRLPRPRPRPMCEPRP, the figure is -0.0122; as for RRIRCRPPRLPRPRPRPDTCPRP, -0.0965. Regarding RRIRNRPPRLPRPRPRPWCRPRP, the “shrunken log2 fold change” value was -0.525. Consider RRIRERPPRLPRPRPRPCHLPRP, for which the “shrunken log2 fold change” value was -0.176. The result for RRIRCRPPRLPRPRPRPNNWPRP reads -0.362; that for RRIRPRPPRLPRPRPRPQKGPRP, -0.0684; that for RRIRVRPPRLPRPRPRPQTEPRP, -0.134. The result for RRIRCRPPRLPRPRPRPEKMPRP reads 0.0239.

For RRIRKRPPRLPRPRPRPHHKPRP, the “shrunken log2 fold change” value is -0.176.

On to RRIRVRPPRLPRPRPRPGPHPRP, for which the “shrunken log2 fold change” value was 0.121. RRIRVRPPRLPRPRPRPPRFPRP: the “shrunken log2 fold change” value was found to be 0.577. The result for RRIRGRPPRLPRPRPRPRCGPRP reads 0.751; that for RRIRRRPPRLPRPRPRPNISPRP, -0.263; that for RRIRNRPPRLPRPRPRPMGYPRP, -0.00459.

For RRIRARPPRLPRPRPRPFEHPRP, the “shrunken log2 fold change” value stood at 0.172. The result for RRIRMRPPRLPRPRPRPAHFPRP reads 0.152. As to RRIRFRPPRLPRPRPRPPILPRP, the “shrunken log2 fold change” value was -0.254.

In the case of RRIRPRPPRLPRPRPRPANRPRP, the “shrunken log2 fold change” value was -0.125. As for RRIRRRPPRLPRPRPRPRRFPRP, the figure is 0.352; as for RRIRMRPPRLPRPRPRPTLPPRP, 0.248; as for RRIRKRPPRLPRPRPRPYMLPRP, -0.579. With RRIRPRPPRLPRPRPRPDPCPRP, the “shrunken log2 fold change” value is -0.0908. As for RRIRYRPPRLPRPRPRPNMHPRP, the figure is -0.934. As for RRIRRRPPRLPRPRPRPISMPRP, the figure is 0.0655; as for RRIRKRPPRLPRPRPRPEWLPRP, 0.576; as for RRIRARPPRLPRPRPRPIRRPRP, 0.24. As to RRIRSRPPRLPRPRPRPGMGPRP, the “shrunken log2 fold change” value came to 0.0599. For the sequence RRIRNRPPRLPRPRPRPAVSPRP, the “shrunken log2 fold change” value is -0.203. With RRIRNRPPRLPRPRPRPWDIPRP, the “shrunken log2 fold change” value is -0.00804. As for RRIRERPPRLPRPRPRPPFRPRP, the figure is 0.173; as for RRIRHRPPRLPRPRPRPALNPRP, 0.0444; as for RRIRMRPPRLPRPRPRPTARPRP, 1.22. As for RRIRRRPPRLPRPRPRPGKAPRP, the figure is 0.112; as for RRIRERPPRLPRPRPRPCRWPRP, -0.205.

Take RRIRPRPPRLPRPRPRPQHKPRP: the “shrunken log2 fold change” value is -0.449. Consider RRIRVRPPRLPRPRPRPCKAPRP, for which the “shrunken log2 fold change” value turned out to be 0.033. As for RRIRVRPPRLPRPRPRPHVKPRP, the figure is -0.0504; as for RRIRHRPPRLPRPRPRPYCTPRP, -0.18; as for RRIRLRPPRLPRPRPRPMEGPRP, 0.0303. The result for RRIRQRPPRLPRPRPRPGVTPRP reads 0.0644; that for RRIRRRPPRLPRPRPRPPIHPRP, -0.11; that for RRIRCRPPRLPRPRPRPGHKPRP, -0.514. The result for RRIRWRPPRLPRPRPRPKFYPRP reads -0.24; that for RRIRVRPPRLPRPRPRPWWWPRP, 0.0767. Take RRIRTRPPRLPRPRPRPYKQPRP: the “shrunken log2 fold change” value is -0.0217. The result for RRIRMRPPRLPRPRPRPQIDPRP reads 0.141.

For RRIRHRPPRLPRPRPRPGRSPRP, the “shrunken log2 fold change” value worked out at 3.99. As for RRIRQRPPRLPRPRPRPAYTPRP, the “shrunken log2 fold change” value came out at 0.0569. As for RRIRMRPPRLPRPRPRPEQKPRP, the figure is -0.0148. As for RRIRQRPPRLPRPRPRPQKKPRP, the figure is -0.214; as for RRIRERPPRLPRPRPRPDNPPRP, -0.0894. The result for RRIRYRPPRLPRPRPRPDWHPRP reads -0.32; that for RRIRWRPPRLPRPRPRPGFLPRP, 0.144; that for RRIRERPPRLPRPRPRPQFCPRP, -0.0627. On to RRIRARPPRLPRPRPRPPPAPRP, for which the “shrunken log2 fold change” value was found to be 1.25.

Take RRIRLRPPRLPRPRPRPYCWPRP: the “shrunken log2 fold change” value is -0.37.

Consider RRIRARPPRLPRPRPRPWGWPRP, for which the “shrunken log2 fold change” value was found to be 0.649.

Regarding RRIRARPPRLPRPRPRPYRAPRP, the “shrunken log2 fold change” value is -0.141. For the sequence RRIRERPPRLPRPRPRPLVFPRP, the “shrunken log2 fold change” value was -0.153. The result for RRIRERPPRLPRPRPRPFIPPRP reads -0.481.

In the case of RRIRKRPPRLPRPRPRPFTLPRP, the “shrunken log2 fold change” value is 0.0269. The result for RRIRQRPPRLPRPRPRPCSLPRP reads -1.03. With RRIRTRPPRLPRPRPRPFNSPRP, the “shrunken log2 fold change” value is -0.127. The result for RRIRCRPPRLPRPRPRPTDKPRP reads -0.243; that for RRIRYRPPRLPRPRPRPAPRPRP, 0.57; that for RRIRFRPPRLPRPRPRPQKRPRP, 0.297. As for RRIRVRPPRLPRPRPRPQGAPRP, the figure is 0.168. As for RRIRQRPPRLPRPRPRPLLEPRP, the figure is 0.105. As to RRIRVRPPRLPRPRPRPWRQPRP, the “shrunken log2 fold change” value came to 0.2. As for RRIRNRPPRLPRPRPRPDACPRP, the figure is -0.0102; as for RRIRKRPPRLPRPRPRPHAVPRP, 0.132.

Take RRIRRRPPRLPRPRPRPRNKPRP: the “shrunken log2 fold change” value came out at 0.0888. As for RRIRCRPPRLPRPRPRPIEYPRP, the figure is -0.148; as for RRIRTRPPRLPRPRPRPDSHPRP, -0.153; as for RRIRLRPPRLPRPRPRPASRPRP, 0.00832. For the sequence RRIRMRPPRLPRPRPRPLCMPRP, the “shrunken log2 fold change” value was determined as 0.0571.

With RRIRLRPPRLPRPRPRPEDQPRP, the “shrunken log2 fold change” value worked out at 0.22. As for RRIRTRPPRLPRPRPRPAGNPRP, the figure is 0.00723. Take RRIRERPPRLPRPRPRPLCEPRP: the “shrunken log2 fold change” value worked out at 0.0297.

With RRIRLRPPRLPRPRPRPLLGPRP, the “shrunken log2 fold change” value turned out to be 0.0797. Turning to RRIRWRPPRLPRPRPRPYPKPRP, the “shrunken log2 fold change” value came out at 0.11.

For RRIRPRPPRLPRPRPRPCHQPRP, the “shrunken log2 fold change” value was 0.0122. Consider RRIRGRPPRLPRPRPRPEMYPRP, for which the “shrunken log2 fold change” value came out at 0.837. The result for RRIRFRPPRLPRPRPRPCSYPRP reads -0.344; that for RRIRPRPPRLPRPRPRPGCVPRP, 0.447. The result for RRIRTRPPRLPRPRPRPLWYPRP reads -0.245; that for RRIRQRPPRLPRPRPRPCLIPRP, -0.0017. For RRIRVRPPRLPRPRPRPFGTPRP, the “shrunken log2 fold change” value is -0.0129.

In the case of RRIRWRPPRLPRPRPRPRWFPRP, the “shrunken log2 fold change” value is 0.999. The result for RRIRGRPPRLPRPRPRPFIIPRP reads 0.102; that for RRIRNRPPRLPRPRPRPPNYPRP, -0.564.
